Measurements as given in patent US20240376151A1, “STAPLED PEPTIDES AND METHODS THEREOF” (FOG PHARMACEUTICALS, INC., priority 2022, published 2024).

Target: T1, beta-catenin (Homo sapiens, UniProt P35222)
T1 construct: made in house; host or cells: E. coli BL21 (DE3) pLysS
T1 sequence (P35222 134-665): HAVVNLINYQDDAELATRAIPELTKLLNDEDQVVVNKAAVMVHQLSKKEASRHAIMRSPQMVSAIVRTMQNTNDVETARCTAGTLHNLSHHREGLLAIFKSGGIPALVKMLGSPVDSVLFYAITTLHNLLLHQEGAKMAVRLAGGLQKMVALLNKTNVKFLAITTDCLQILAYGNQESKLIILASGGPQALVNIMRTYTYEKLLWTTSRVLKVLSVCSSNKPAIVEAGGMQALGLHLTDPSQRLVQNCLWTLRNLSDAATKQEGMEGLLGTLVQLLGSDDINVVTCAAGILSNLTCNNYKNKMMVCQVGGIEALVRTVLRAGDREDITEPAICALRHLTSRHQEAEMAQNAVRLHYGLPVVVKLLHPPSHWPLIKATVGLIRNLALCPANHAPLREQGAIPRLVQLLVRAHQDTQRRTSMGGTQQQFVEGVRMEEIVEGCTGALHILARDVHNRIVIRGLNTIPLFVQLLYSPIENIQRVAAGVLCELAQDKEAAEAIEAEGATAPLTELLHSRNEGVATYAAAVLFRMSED
Assay: Phage Library Screening with NGS, beta-catenin
Type: binding
Conditions: for Target Concentration 10 (phage screen NGS readout): beta-catenin target concentration 10; for Target Concentration 10 (phage screen NGS readout) / Target Concentration 30 (phage screen NGS readout) / Target Concentration 100 (phage screen NGS readout) / Target Concentration 300 (phage screen NGS readout): no competitor; for Target Concentration 30 (phage screen NGS readout): beta-catenin target concentration 30; for Target Concentration 100 (phage screen NGS readout): beta-catenin target concentration 100; for Target Concentration 300 (phage screen NGS readout): beta-catenin target concentration 300; for Target Concentration 1000 (phage screen NGS readout): beta-catenin target concentration 1000

| Sequence | Target Concentration BLANK (phage screen NGS readout) (first column) | Target Concentration BLANK (phage screen NGS readout) (fourth column) | Target Concentration BLANK (phage screen NGS readout) (second column) | Target Concentration BLANK (phage screen NGS readout) (third column) | Target Concentration 10 (phage screen NGS readout) | Target Concentration 30 (phage screen NGS readout) | Target Concentration 100 (phage screen NGS readout) | Target Concentration 300 (phage screen NGS readout) | Target Concentration 1000 (phage screen NGS readout) (first 1000 column) | Target Concentration 1000 (phage screen NGS readout) (second 1000 column) |
| --- | --- | --- | --- | --- | --- | --- | --- | --- | --- | --- |
| DPAILDCQIAAIECEFA | 0 | 1 | 0 | 0 | 0 | 22 | 76 | 68 | 139 | 56 |
| DPAILECHMAAFECYIE | 0 | 0 | 0 | 0 | 8 | 2 | 20 | 59 | 86 | 41 |
| DPAILNCHMAAWDCNFY | 0 | 0 | 0 | 1 | 0 | 7 | 14 | 57 | 37 | 59 |
| DPAILQCYEAAFSCHYQ | 0 | 0 | 0 | 0 | 0 | 9 | 40 | 54 | 39 | 42 |
| DPAILTCYEAAFTCQYQ | 0 | 0 | 1 | 0 | 0 | 7 | 18 | 71 | 69 | 105 |
| DPAIMACYEAAYLCDYI | 1 | 1 | 0 | 0 | 2 | 4 | 29 | 85 | 111 | 150 |
| DPALWNCDHAALLCDHQ | 0 | 0 | 0 | 0 | 0 | 0 | 10 | 8 | 13 | 10 |

Now from value to sequence:

| Target Concentration BLANK (phage screen NGS readout) (first column) | Target Concentration BLANK (phage screen NGS readout) (fourth column) | Target Concentration BLANK (phage screen NGS readout) (second column) | Target Concentration BLANK (phage screen NGS readout) (third column) | Target Concentration 10 (phage screen NGS readout) | Target Concentration 30 (phage screen NGS readout) | Target Concentration 100 (phage screen NGS readout) | Target Concentration 300 (phage screen NGS readout) | Target Concentration 1000 (phage screen NGS readout) (first 1000 column) | Target Concentration 1000 (phage screen NGS readout) (second 1000 column) | Sequence |
| --- | --- | --- | --- | --- | --- | --- | --- | --- | --- | --- |
| 0 | 0 | 0 | 0 | 3 | 21 | 67 | 168 | 201 | 114 | DPAILDCQLAAIDCVYT |
| 0 | 0 | 0 | 0 | 0 | 6 | 22 | 21 | 25 | 55 | DPAILDCQLAAMDCSTW |
| 0 | 0 | 0 | 0 | 0 | 0 | 16 | 42 | 39 | 29 | DPAILDCSIAAIDCAYS |
| 0 | 0 | 2 | 0 | 0 | 2 | 40 | 55 | 98 | 81 | DPAILECHVAALDCQMW |
| 0 | 0 | 0 | 0 | 7 | 8 | 20 | 49 | 41 | 39 | DPAILECYEAAFECQYM |
| 0 | 0 | 0 | 0 | 0 | 0 | 1 | 8 | 4 | 23 | DPAILNCHVAAWNCHSF |
| 1 | 0 | 0 | 1 | 0 | 0 | 4 | 27 | 29 | 18 | DPAIMACYQAAFWCQYN |
| 0 | 0 | 1 | 0 | 0 | 0 | 4 | 33 | 19 | 42 | DPAMIQCQWAAEHCELI |
